According to paper PMC7020344, “The eEF2 kinase-induced STAT3 inactivation inhibits lung cancer cell proliferation by phosphorylation of PKM2” (Cell Communication and Signaling : CCS, 2020):
Where “and” joins values, the source holds several entries; their conditions need not be identical. Equal entries are not always repeated.

Biological target: the molecule itself
Test: cross-linking; A549 cells washed with PBS pH 8.0 and treated with BS3 for 1 h at room temperature before lysis in loading buffer; dimers and tetramers by immunoblot; cells with eEF2K depletion, overexpression or A484954

B1: FLAG-PKM2 T129A (enzyme)
chain: not shown
notes: human PKM2 from the vector pWZL-FLAG-PKM2 (Addgene #20585) with the point mutation T129A made by PCR mutagenesis; source: A549 cells expressing it, in cells (cross-linked with BS3 before lysis)
stoichiometry N: 4 and 2
